Source: the supplement of paper PMC10065799, “High-throughput profiling of sequence recognition by tyrosine kinases and SH2 domains using bacterial peptide display” (eLife, 2023)

Assays:
[1] = molecular target: FGFR1 (UniProt P11362); test: phosphorylation enrichment, bacterial display (enrichment ratio); higher = better substrate or ligand; peptides without Tyr show the background
[2] = molecular target: MERTK (UniProt Q12866); test: as above
[3] = system: Fer (mouse); test: as above
[4] = molecular target: Jak2 (UniProt O60674); test: as above
[5] = system: c-Src; test: as above
[6] = system: AncSZ; test: as above
[7] = molecular target: Hck (UniProt P08631); test: as above
[8] = molecular target: EPHB2 (UniProt P29323); test: as above
[9] = system: c-Abl (mouse); test: as above
[10] = molecular target: EPHB1 (UniProt P54762); test: as above
[11] = molecular target: Fyn (UniProt P06241); test: as above
[12] = molecular target: Fes (UniProt P07332); test: as above
[13] = molecular target: FGFR3 (UniProt P22607); test: as above
[14] = molecular target: c-Src SH2; test: SH2 binding enrichment of the phosphorylated peptide, bacterial display (enrichment ratio); higher = better substrate or ligand; peptides without Tyr show the background
[15] = molecular target: SHP2-C SH2; test: as above
[16] = molecular target: Grb2 SH2 (UniProt P62993); test: as above
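Wherever SH2 binding enrichment of the phosphorylated peptide, bacterial display is given: peptide library displayed on the E. coli surface as eCPX fusions, selected cells deep-sequenced, score is each peptide's frequency after selection divided by its frequency in the input.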
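Wherever phosphorylation enrichment, bacterial display is given: 11-residue human phosphosite peptides and single-mutation variants displayed on the E. coli surface, counted by deep sequencing, each peptide's frequency after selection divided by its frequency in the unselected input library; frequency after pTyr selection over input frequency; kinase dosed for 20-30% of maximal phosphorylation in three min.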

Chain of FGFR3 (P22607 whole entry, looked up): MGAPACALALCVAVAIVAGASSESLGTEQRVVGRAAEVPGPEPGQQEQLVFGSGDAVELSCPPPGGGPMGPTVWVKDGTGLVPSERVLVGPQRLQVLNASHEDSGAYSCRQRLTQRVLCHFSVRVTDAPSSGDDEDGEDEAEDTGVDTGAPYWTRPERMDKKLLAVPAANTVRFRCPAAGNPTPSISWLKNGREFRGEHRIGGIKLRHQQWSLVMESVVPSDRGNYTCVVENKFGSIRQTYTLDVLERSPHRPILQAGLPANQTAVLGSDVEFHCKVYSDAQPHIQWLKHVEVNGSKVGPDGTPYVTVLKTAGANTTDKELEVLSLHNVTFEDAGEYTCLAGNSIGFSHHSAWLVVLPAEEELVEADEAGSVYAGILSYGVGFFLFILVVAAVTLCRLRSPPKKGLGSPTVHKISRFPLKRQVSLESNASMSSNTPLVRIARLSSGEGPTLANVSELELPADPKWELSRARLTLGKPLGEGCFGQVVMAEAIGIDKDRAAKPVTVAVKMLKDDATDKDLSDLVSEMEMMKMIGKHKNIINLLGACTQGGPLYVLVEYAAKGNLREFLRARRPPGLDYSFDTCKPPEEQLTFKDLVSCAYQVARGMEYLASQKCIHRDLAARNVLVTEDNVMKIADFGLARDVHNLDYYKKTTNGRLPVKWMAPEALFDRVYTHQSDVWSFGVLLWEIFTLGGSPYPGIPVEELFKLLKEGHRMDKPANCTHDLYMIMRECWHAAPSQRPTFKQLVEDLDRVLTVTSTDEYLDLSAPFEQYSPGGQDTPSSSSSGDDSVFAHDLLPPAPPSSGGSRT
Chain of FGFR1 (P11362 whole entry, looked up): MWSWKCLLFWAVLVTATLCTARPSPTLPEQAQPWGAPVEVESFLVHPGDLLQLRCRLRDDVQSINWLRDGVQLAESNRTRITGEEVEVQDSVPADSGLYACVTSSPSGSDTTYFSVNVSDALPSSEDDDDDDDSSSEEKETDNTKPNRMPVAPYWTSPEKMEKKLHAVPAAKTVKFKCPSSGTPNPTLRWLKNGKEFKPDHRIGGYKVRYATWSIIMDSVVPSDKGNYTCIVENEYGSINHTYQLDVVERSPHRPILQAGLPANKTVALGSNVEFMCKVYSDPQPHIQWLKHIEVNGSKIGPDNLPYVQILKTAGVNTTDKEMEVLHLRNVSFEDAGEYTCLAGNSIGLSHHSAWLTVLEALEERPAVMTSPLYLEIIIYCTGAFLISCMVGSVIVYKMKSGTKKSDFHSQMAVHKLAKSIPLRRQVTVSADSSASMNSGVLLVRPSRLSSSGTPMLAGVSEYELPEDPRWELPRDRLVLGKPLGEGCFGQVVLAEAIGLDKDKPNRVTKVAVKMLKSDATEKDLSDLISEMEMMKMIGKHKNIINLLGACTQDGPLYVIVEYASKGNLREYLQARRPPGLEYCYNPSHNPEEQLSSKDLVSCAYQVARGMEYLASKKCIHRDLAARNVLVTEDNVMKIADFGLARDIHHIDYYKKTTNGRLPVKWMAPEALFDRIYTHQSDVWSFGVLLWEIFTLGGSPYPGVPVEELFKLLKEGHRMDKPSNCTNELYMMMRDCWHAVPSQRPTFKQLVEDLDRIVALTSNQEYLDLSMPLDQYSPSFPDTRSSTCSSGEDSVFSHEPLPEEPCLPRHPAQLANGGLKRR
Chain of Jak2 (O60674 whole entry, looked up): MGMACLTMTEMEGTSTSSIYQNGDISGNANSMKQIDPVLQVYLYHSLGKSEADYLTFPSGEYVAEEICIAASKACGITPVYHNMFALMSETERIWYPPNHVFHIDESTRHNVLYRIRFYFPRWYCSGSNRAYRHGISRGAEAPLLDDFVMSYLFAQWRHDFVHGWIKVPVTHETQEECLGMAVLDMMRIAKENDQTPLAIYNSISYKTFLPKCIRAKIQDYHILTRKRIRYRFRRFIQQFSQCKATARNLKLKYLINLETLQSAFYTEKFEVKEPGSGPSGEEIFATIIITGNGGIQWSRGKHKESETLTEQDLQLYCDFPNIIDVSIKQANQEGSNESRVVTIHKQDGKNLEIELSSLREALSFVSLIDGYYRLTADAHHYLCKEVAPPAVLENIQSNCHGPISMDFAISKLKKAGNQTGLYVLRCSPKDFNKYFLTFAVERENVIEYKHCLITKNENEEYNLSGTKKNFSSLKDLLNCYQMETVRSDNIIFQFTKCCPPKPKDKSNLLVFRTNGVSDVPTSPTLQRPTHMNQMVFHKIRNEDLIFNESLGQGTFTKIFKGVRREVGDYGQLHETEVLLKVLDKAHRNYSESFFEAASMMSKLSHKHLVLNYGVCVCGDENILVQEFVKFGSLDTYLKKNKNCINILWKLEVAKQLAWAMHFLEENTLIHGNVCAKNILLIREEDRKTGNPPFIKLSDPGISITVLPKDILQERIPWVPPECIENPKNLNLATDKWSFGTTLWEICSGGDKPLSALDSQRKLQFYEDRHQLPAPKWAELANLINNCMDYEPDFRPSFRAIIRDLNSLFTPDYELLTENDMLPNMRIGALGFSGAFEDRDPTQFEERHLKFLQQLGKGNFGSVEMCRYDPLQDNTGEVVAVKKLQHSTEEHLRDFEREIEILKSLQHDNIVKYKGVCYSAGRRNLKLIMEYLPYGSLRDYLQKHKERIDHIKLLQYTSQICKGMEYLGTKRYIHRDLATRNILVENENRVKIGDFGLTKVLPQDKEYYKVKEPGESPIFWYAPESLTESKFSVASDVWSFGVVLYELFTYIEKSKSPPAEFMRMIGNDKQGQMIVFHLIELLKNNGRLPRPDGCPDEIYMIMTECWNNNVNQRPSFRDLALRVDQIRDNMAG
Chain of MERTK (Q12866 whole entry, looked up): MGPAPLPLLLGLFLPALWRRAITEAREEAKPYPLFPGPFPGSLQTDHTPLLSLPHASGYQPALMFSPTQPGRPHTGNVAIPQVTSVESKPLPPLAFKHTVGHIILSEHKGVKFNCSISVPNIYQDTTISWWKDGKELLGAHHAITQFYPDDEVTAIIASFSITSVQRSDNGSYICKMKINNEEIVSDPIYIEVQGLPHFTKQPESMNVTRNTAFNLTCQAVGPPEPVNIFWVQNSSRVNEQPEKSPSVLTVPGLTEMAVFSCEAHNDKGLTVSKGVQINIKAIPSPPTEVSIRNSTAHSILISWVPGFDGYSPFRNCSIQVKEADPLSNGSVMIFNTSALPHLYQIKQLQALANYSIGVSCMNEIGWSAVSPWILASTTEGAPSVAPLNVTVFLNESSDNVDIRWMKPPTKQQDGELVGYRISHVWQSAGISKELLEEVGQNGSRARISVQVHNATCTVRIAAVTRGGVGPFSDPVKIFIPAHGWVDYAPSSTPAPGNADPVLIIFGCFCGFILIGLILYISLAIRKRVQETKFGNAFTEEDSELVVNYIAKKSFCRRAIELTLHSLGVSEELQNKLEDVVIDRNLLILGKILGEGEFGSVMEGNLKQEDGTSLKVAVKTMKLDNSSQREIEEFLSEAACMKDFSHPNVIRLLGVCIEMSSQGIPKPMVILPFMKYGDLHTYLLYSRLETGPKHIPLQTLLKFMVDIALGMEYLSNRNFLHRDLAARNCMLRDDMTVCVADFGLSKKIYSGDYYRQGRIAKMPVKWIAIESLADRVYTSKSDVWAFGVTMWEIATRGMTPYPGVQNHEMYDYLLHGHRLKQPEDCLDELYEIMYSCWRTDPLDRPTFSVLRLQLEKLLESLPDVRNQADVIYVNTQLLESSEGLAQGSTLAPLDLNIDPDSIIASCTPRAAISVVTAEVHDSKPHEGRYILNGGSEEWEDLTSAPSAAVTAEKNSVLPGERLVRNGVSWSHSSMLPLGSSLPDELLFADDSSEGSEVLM
Chain of EPHB2 (P29323 whole entry, looked up): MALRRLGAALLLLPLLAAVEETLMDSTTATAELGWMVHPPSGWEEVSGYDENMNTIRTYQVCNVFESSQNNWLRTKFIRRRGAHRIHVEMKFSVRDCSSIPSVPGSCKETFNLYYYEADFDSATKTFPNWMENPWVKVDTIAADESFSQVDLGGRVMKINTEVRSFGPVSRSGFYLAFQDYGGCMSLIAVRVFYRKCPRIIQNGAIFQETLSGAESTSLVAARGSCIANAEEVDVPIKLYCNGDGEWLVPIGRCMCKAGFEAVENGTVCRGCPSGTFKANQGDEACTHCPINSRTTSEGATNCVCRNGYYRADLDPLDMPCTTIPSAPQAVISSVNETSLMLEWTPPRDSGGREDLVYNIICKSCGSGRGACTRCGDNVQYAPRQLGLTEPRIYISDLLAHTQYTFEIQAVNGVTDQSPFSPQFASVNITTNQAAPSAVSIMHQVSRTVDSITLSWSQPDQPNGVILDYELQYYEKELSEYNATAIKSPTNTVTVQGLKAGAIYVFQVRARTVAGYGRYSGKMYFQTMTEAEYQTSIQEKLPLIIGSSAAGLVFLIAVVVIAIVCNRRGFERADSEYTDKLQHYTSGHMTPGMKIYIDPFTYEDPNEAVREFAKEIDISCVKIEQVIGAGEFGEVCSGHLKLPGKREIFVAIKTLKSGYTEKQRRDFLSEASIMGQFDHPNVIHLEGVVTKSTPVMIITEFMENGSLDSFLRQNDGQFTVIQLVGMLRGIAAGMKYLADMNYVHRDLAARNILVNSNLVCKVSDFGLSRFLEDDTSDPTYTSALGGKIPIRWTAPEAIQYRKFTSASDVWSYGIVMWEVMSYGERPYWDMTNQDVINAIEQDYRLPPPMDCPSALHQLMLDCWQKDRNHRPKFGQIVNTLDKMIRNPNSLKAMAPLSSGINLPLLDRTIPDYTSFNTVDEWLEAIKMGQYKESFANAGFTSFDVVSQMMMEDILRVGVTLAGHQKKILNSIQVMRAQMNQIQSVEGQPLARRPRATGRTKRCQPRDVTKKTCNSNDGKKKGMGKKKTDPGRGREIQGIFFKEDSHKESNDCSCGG
Chain of Grb2 SH2 (P62993 whole entry, looked up, the tested form may be a part): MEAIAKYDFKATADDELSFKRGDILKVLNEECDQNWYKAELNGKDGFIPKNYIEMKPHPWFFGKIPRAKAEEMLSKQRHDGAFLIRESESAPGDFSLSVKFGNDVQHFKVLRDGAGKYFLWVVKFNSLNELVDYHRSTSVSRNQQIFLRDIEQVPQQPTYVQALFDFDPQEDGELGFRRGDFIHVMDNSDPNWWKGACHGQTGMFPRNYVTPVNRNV

Sequence	phosphorylation enrichment [1]	phosphorylation enrichment [2]	phosphorylation enrichment [3]	phosphorylation enrichment [4]	phosphorylation enrichment [5]	phosphorylation enrichment [6]	phosphorylation enrichment [7]	phosphorylation enrichment [8]	phosphorylation enrichment [9]	phosphorylation enrichment [10]	phosphorylation enrichment [11]	phosphorylation enrichment [12]	phosphorylation enrichment [13]	SH2 binding enrichment [14]	SH2 binding enrichment [15]	SH2 binding enrichment [16]
SLQFEYVHFGG [CDC14A_Y591_S589F_YF]	1.47	0.426	0.367	1.12	0.604	1.25	0.557	0.682	0.781	0.612	0.548	1.29	1.33	0.643	0.925	1.08
KSVEEYANCHL [TF_Y593_P589S]	0.475	0.521	0.466	0.688	0.408	0.756	0.486	0.429	0.628	0.482	0.458	0.85	0.666	1.14	0.782	1.14
KRTFEYEAEKN [DENND2B_Y396_D399E]	0.511	0.505	0.436	0.798	0.518	0.771	0.463	0.431	0.675	0.43	0.501	0.769	0.527	0.535	0.703	1.06
KFSNQYKATIG [RAB7A_Y37]	0.351	0.4	0.463	0.538	0.485	0.528	0.44	0.311	0.471	0.47	0.41	0.613	0.411	0.656	1.01	0.948
KMMGRYEMYAR [UPB1_Y362_T359M]	0.5	0.543	0.302	0.966	0.414	0.711	0.51	0.551	0.367	0.374	0.333	0.711	0.529	1.11	0.826	1.29
AVLSLYASGRN [ACTA1_Y145_T150N]	0.436	0.388	0.549	0.958	0.419	0.858	0.688	0.557	0.737	0.519	0.44	0.989	0.581	0.669	0.976	0.867
LAIELYVVVCK [RHO_Y136_R135L]	1.4	0.597	1.17	2.07	1.11	2.14	0.861	2.06	2.59	2.12	1.14	3.23	1.64	0.458	0.67	0.976
DPAFGYEDFTR [SESN2_Y323_T320A]	0.569	0.445	0.457	0.987	0.59	1.08	0.594	0.577	0.764	0.455	0.533	1.21	0.775	5.24	0.693	0.991
FKWAVYCIIGR [NUP93_Y391_R388W_YF]	0.614	0.534	1.02	1.03	0.652	1.28	0.699	0.673	0.902	1.19	0.554	1.28	0.714	1.21	1.39	1.98
ISPPVYLTNEW [NRK_Y885]	0.704	0.542	0.698	1.1	0.766	1.13	0.732	0.724	0.92	0.694	0.825	1.09	0.718	0.655	1.11	1.03
YPPDGYSRHYE [CTNND1_Y213]	0.451	0.395	0.354	0.534	0.354	0.561	0.414	0.394	0.355	0.388	0.348	0.655	0.548	1.21	1.04	0.911
RALLNYIASKF [GSTA3_Y74_I71L_YF]	0.423	0.597	0.553	0.536	0.587	1.13	0.721	0.624	0.638	0.763	0.385	0.956	0.767	0.49	0.579	0.842
FVKEPYIQSRF [HIPK4_Y175_YF]	0.375	0.39	0.43	0.607	0.418	0.569	0.402	0.452	0.447	0.402	0.374	0.702	0.479	0.509	0.785	0.942
EFKKHYGYSLY [ANXA3_Y295]	0.471	0.401	0.353	0.555	0.598	0.531	0.727	0.39	0.541	0.367	0.433	0.611	0.38	1.57	1.51	1.31
DFFDLYGGEKK [PTPN11_Y66_F71K_YF]	0.562	0.499	0.566	1.16	2.26	1.17	2.81	0.79	0.827	0.511	1.32	1.38	0.772	0.601	0.86	0.994
EAVKNYTEKRG [PBRM1_Y672_D674E]	0.394	0.384	0.564	0.478	0.335	0.626	0.388	0.344	0.433	0.318	0.328	0.514	0.449	0.446	0.612	1.01
VISNAYVDLAP [HSD17B4_Y602]	0.89	0.589	0.516	0.707	0.435	0.675	0.471	0.557	0.475	0.436	0.428	0.777	0.653	3.79	1.21	0.858

Sequence	phosphorylation enrichment [1]	phosphorylation enrichment [2]	phosphorylation enrichment [3]	phosphorylation enrichment [4]	phosphorylation enrichment [5]	phosphorylation enrichment [6]	phosphorylation enrichment [7]	phosphorylation enrichment [8]	phosphorylation enrichment [9]	phosphorylation enrichment [10]	phosphorylation enrichment [11]	phosphorylation enrichment [12]	phosphorylation enrichment [13]	SH2 binding enrichment [14]	SH2 binding enrichment [15]	SH2 binding enrichment [16]
PFTRNYFVQAV [CYBA_Y87_R90Q_YF]	1.16	0.763	1.25	0.6	0.353	0.963	0.979	0.747	0.65	0.601	0.943	1.2	0.905	0.533	0.467	0.634
KEAQVYQAFRL [SUCLG2_Y343_K347R]	0.743	4.78	14	0.661	11.3	0.576	14	0.62	19.6	1.23	14.2	0.677	0.581	0.486	0.541	0.768
KHCEDYVCSFN [DSC1_Y846_YF]	0.572	0.424	0.525	1.13	0.829	1.15	0.446	0.522	0.719	0.564	0.473	1.08	0.681	0.809	0.87	1.06
TEQDPYNNIVH [MMUT_Y364_R369H]	0.501	0.512	0.544	0.788	0.515	1.05	0.586	0.679	0.851	0.475	0.572	0.965	0.599	2.11	0.769	0.913
FARNSYVAGQY [G6PD_Y107]	0.403	0.405	0.347	0.502	0.535	0.516	0.385	0.4	0.449	0.322	0.389	0.544	0.415	0.495	0.651	0.826
MAFDRYVAICA [OR52J3_Y125_V128I]	0.586	0.386	0.562	0.726	0.394	0.939	0.555	0.659	0.362	1.12	0.454	0.808	0.708	0.974	0.635	1.08
LVMFIYAISGM [SCN1A_Y1684_F1687S]	0.48	0.725	0.813	1.17	0.85	1.2	0.727	0.927	1.17	0.931	0.442	1.99	1.01	0.569	1.4	0.792
VPLLEYFRDIF [CDAN1_Y712_YF]	0.687	0.56	0.584	1.41	0.52	1.42	0.566	0.715	1.06	0.523	0.543	1.6	0.943	1.13	1.38	1.44
ISIFFYAKGQP [MPZ_Y82_H81Y_YF]	0.544	0.527	0.554	1.43	0.548	1.33	0.573	0.611	1.25	0.608	0.395	1.52	0.865	0.406	0.529	1.33
GKTQQYECKWF [BCR_Y751_D752E_YF]	0.545	0.467	0.572	0.793	0.472	0.818	0.569	0.603	0.614	0.509	0.509	1.06	0.627	0.488	0.529	0.694
NKYVAYIESQG [KDM4B_Y34]	0.567	0.449	0.422	0.827	0.437	0.893	0.413	0.472	0.692	0.554	0.407	0.885	0.625	0.676	1.51	0.755
QDTSRYTVSNL [BIRC3_Y245]	0.516	0.567	0.501	0.644	0.617	0.971	0.467	0.467	0.804	0.675	0.523	0.824	0.71	0.453	0.54	0.879
SGGSSYGSGGC [KRT1_Y532_G537C]	0.589	0.431	0.53	0.677	0.502	0.681	0.493	0.596	0.697	0.558	0.465	0.932	0.667	0.538	0.536	0.756
FSTDCYRVGGH [NTRK2_Y707_Y706C_YF]	0.599	0.652	0.452	1.05	0.608	1.08	0.646	0.576	0.934	0.592	0.545	1.12	0.638	0.636	0.745	0.827
GFSDPYVKAFL [SYT3_Y470_S474F]	0.535	0.472	0.565	0.898	0.497	0.693	0.466	0.577	0.772	0.595	0.481	1	0.729	0.51	0.686	0.897
RNYGTYTAGLS [RHBDD1_Y264_D262G]	0.546	0.55	0.519	0.74	1.94	0.781	2.76	3.23	0.629	0.804	2.18	0.748	0.533	0.533	0.512	0.835
